These results are taken from patent publication US7700353B2, “Compositions and methods for inducing apoptosis in tumor cells” (E-P Therapeutics, Inc., priority 1998, dated 2010).

For series [1], the system named is MDA-MB-231 cells on chicken CAM. As to the kind of experiment: Human breast cancer cells seeded on chicken CAM. Format: in vivo. Conditions: single or multiple doses, five day old chicken embryos. The source says:
The invasion of MDA-MB-231 cells in the chicken embryos was further confirmed by immunocytochemistry. […] The activity in the widely accepted chicken model, provides ample support for the belief that the methods of the invention can be used to treat cancer in animals as well as humans.

Series [2] relates to chorioallantoic membrane (CAM) of chick embryos. Nature of the series: Chick embryo chorioallantoic membrane (CAM) angiogenesis assay. The format is in vivo. Conditions: day 7. How it is done: A suitable assay is the chick embryo chorioallantoic membrane (CAM) assay described by Crum et al. Science 230:1375 (1985). See also, U.S. Pat. No. 5,001,116, hereby incorporated by reference, which describes the CAM assay. Briefly, the Ea-4 peptide (40 µg and 80 µg), endostatin (5 µg and 10 µg) and a PBS control buffer were delivered onto the chorioallantoic membrane (CAM) of three-day old chick embryos. The CAMs were photographed in ovo with a digital camera on day 7. The angiogenic response was assessed by counting the number of intersect points of the blood vessels spread out in a defined field (vessel density). […] The effect is quantified in the histogram in FIG. 17.
Each were dissolved in PBS, and various and known amounts of hEb-peptide (250 µg, 500 µg and 1000 µg respectively) and human endostatin (10 µg and 20 µg respectively) were applied to the CAM. Pictures were taken on day 7 for vessel density determination.

Series [3] relates to SK-N-F1 neuroblastoma cells. Nature of the series: Neurite-like process outgrowth / morphological differentiation. Format: cell-based, human. As to conditions: 2 h.
Series [4] has as its system CCD-1112SK primary baby foreskin cells.
Excerpt: Apoptosis of cells can also be detected by terminal deoxynucleotidyl transferase mediated dUTP nick end labeling (TUNEL) assay.
For series [5], the system named is ZR75-1 and MDA-MB 231 cell lines (single-cell clones). Nature of the series: Morphological change in single-cell malignant clones. The format is cell-based, human. The protocol: Because each of these tumor cell lines obtained from ATCC contains a mixed population of tumorous and nontumorous cells, only between 25-40% of the cells from each cell line responded to induction by rtEa-4-peptide. […] About 1 -2×10^5 cells resuspended in their respective basal medium without FBS were plated in a 6-well culture chamber. Different amounts of trout Ea-4-peptide (0.4 µM, 0.8 µM and 1.6 µM) or control protein (1.6 µM) were added to the wells, and the cell cultures were incubated at 37° C. under a humidified atmosphere of 5% CO2. Twenty-four hours after initiation of the treatment, cells were observed under an Olympic inverted microscope equipped with phase contrast objective lenses (200× magnification).

Series [6] relates to 293GP or ZR-75-1 cells. As to the kind of experiment: Morphological change by Ea-2, Ea-3, Ea-4 peptides. Format: cell-based, human. As to conditions: 0.8 μM, 24 hours. How it is done: Approximately 1-2×10^5 of MCF-7, ZR-75-1, HT-29, HepG2, 293GP, HC or SK-N-F1 cells re-suspended in their respective basal medium without fetal bovine serum (FBS) were plated in a 6-well culture chamber. Prior to plating cells, an acid-washed coverslip was placed in each well of the culture chamber. Recombinant rainbow trout E-peptides (rtEa-2, rtEa-3 or rtEa-4 peptide at 0.8 µM), human IGF-I (hIGF-1, 2.5 nM) or the same amount of control protein was added to each well and the cell cultures were incubated at 37° C. under a humidified atmosphere of 5% CO2. The control protein was prepared from E. coli cells carrying the expression plasmid but without the E-peptide gene according to the purification method described by Tian et al. (1999). Coverslips were removed from the culture chamber 24 hours after initiation of the treatment and observed under an Olympic inverted microscope equipped with differential interference phase contrast objective lenses or phase contrast objective lens (final magnification, 200×). The morphological change assay was performed at least 10 times with different batches of Ea-4 peptide preparations.
Cells were again cultured as described above. Twenty-four hours after treatment with 0.8 µM of E-peptides or the control protein, the cells were observed under an Olympic inverted microscope equipped with differential interference phase contrast objective lenses (200× magnification). […] To confirm this hypothesis, synthetic peptides specific to Ea-1-, Ea-2-, Ea-3- and Ea-4-peptide (Ea-1sp, Ea-2sp, Ea-3sp and Ea-4sp) specific sequence (see FIG. 1) were prepared and tested for their activities to induce morphological change in ZR-75-1 cells. For FIG. 6, cells were cultured in F12/DME medium without FBS as described above. Twenty-four hours after treatment with 0.8 µM of synthetic peptide containing Ea-1 sp, Ea-2sp, Ea-3sp or Ea-4sp specific sequence or the control protein, the cells were observed under an Olympic inverted microscope equipped with differential interference phase contrast objective lenses (200× magnification).

Series [7] concerns HT-29 or MDA-MB-231 cells. Nature of the series: Colony formation assay in semi-solid medium (Ea-4 peptide). The format is cell-based, human. As to conditions: increasing concentrations (0.4 to 1.6 μM), 1.25% FBS, vs control protein. How it is done: Colony formation assays were conducted following the method described by Yang (1975). About 2×10^4 of HT-29 (colon cancer cells) or MDA-MB-231 cells (aggressive breast cancer cells) at log phase were plated in their respective basal medium containing 1.25% FBS and 0.5% purified agar (Difco laboratories), and supplemented with various concentrations (0.4 to 1.6 µM) of the recombinant rainbow trout Ea-4 peptide, or the same amount of the control protein, in 6-well culture chambers. After the medium is solidified, each well is overlaid with 1 mL of the basal medium (containing 1.25% FBS) supplemented with same concentration of the trout Ea-4 peptide. The plates were incubated at 37° C. in a humidified incubator with 5% CO2 and examined daily under an inverted microscope for 2-3 weeks. Colonies were observed under an Olympic inverted microscope equipped with phase contrast objective lenses (final magnification: 40×). Colonies with sizes ≥50 µm were scored. The viability of cells at the conclusion of the experiment was confirmed by dye extrusion assay with tryptan blue. The assay was conducted two times.

Series [8] has as its system cultured BALB/3T3 fibroblast. Conditions: recombinant peptides; cited from earlier work.

B1: hEb: chemically synthesized human Eb peptide of pro-IGF-I, 77 amino acid residues (SEQ ID NO:1) (peptide, listed as Homo sapiens)
chain: RSVRAQRHTDMPKTQKYQPPSTNKNTKSQRRKGWPKTHPGGEQKEGTEASLQIRGKKKEQRREIGSRNAECRGKKGK
Take B1: the “growth and invasion of MDA-MB-231 cells and induction of blood vessel formation on chicken CAM” value in series [1] is on record as “inhibited”. Also, in series [2] (250, 500 and 1000 μg on CAM), the vessel density entry is recorded as “dose-dependent reduction”. Moreover, the Neurite length in series [3] (0.4 μM) is listed as 30 ± 1.6 μm; in series [3] (1.6 μM) it was 33 ± 3.8 μm; in series [3] (3.2 μM), 33 ± 2.8 μm. Further, the Apoptosis entry in series [4] is given as “−”.

B2: rtEa-4: recombinant Ea-4 peptide of rainbow trout pro-IGF-I, 74 amino acid residues (SEQ ID NO: 2) (protein)
chain: RSVRAQRHTDMPRTPKVSTAVQNVDRGTERRTAQHPDKTKTKKKPLSGHSHPSCKEVHQKNSSRGNTGGRNYRM
modifications: Oncorhynchus mykiss
Take B2: the “growth and invasion of MDA-MB-231 cells and induction of blood vessel formation on chicken CAM” value in series [1] was “inhibited”. In addition, the “extent of the morphological change” value in series [5] (0.4 to 1.6 μM) is listed as “proportional to the amounts”. For the same molecule, the “cells responsive to treatment” value in series [5] (purified single-cell clones, 0.4-1.6 μM, 24 hours) is recorded as roughly 95%. Also, in series [6], the “induction of morphological change” value was “able to induce morphological change”. Further, in series [7], the “colonies developed in soft agar medium” value is given as “fewer colonies”. Moreover, the blood vessel branching entry in series [2] (40 μg and 80 μg on CAM of three-day old chick embryos) is “inhibitory effect”. Besides, the mitogenic activity entry in series [8] was “possess mitogenic activity”.
